According to patent US20170260289A1 (Novo Nordisk, published 2017):

Key:
Experiment in all cases: cell-based or functional assay
[1] = target: T1, human TFPI alpha (full-length TFPIα) (human, UniProt P10646 29-304)
[2] = target: T1, human TFPI alpha (full-length TFPIα); remark: listed apart in the source
[3] = target: T2, endogenous TFPI of human plasma (human, UniProt P10646 29-304, limits assumed)
[4] = target: T1, human TFPI alpha (full-length TFPIα); remark: listed apart in the source
[5] = target: T2, endogenous TFPI of human plasma; remark: listed apart in the source

| Binder | Peak (nM); thrombin generation, FVIII-neutralised plasma + 20 nM TFPIα; 200 nM antibody [1] [nM] | Peak (nM); thrombin generation, FVIII-neutralised plasma + 10 nM TFPIα; 10 nM Fab [2] [nM] | Peak (nM); thrombin generation, FVIII-neutralised plasma + 10 nM TFPIα; 50 nM Fab [2] [nM] | Peak (nM); thrombin generation, FVIII-neutralised plasma + 10 nM TFPIα; 100 nM Fab [2] [nM] | ttPeak (min); thrombin generation, FVIII-neutralised plasma + 10 nM TFPIα; 10 nM Fab [2] [min] | ttPeak (min); thrombin generation, FVIII-neutralised plasma + 10 nM TFPIα; 50 nM Fab [2] [min] | ttPeak (min); thrombin generation, FVIII-neutralised plasma + 10 nM TFPIα; 100 nM Fab [2] [min] | Peak (nM); thrombin generation, FVIII-neutralised plasma, endogenous TFPI; 10 nM Fab [3] [nM] | Peak (nM); thrombin generation, FVIII-neutralised plasma, endogenous TFPI; 50 nM Fab [3] [nM] | Peak (nM); thrombin generation, FVIII-neutralised plasma, endogenous TFPI; 100 nM Fab [3] [nM] | ttPeak (min); thrombin generation, FVIII-neutralised plasma, endogenous TFPI; 10 nM Fab [3] [min] | ttPeak (min); thrombin generation, FVIII-neutralised plasma, endogenous TFPI; 50 nM Fab [3] [min] | ttPeak (min); thrombin generation, FVIII-neutralised plasma, endogenous TFPI; 100 nM Fab [3] [min] | ttPeak (min); thrombin generation, FVIII-neutralised plasma + 20 nM TFPIα; 200 nM antibody [1] [min] | further results |
| --- | --- | --- | --- | --- | --- | --- | --- | --- | --- | --- | --- | --- | --- | --- | --- |
| mAb 1F91 (antibody, IgG1, V domains shown) VH: DVQLQESGPGLVKPSQSLSLTCTVSGYSITSDYAWNWIRQFPGNKLEWMGYISYSGSTSYNPSLKSRISITRDTSKNQFFLQLNSVTTEDTATYYCARWAYDGPWGQGTLVTVSA VL: QIVLSQSPALLSASPGEKVTMTCRASSSVSHMHWYQQKPGSSPKPWIYATSNLASGVPARFSGSGSGTSYSLTITRVEAEDAATYYCQQWSSNPFTFGSGTKLEIKR | 0 | – | – | – | – | – | – | – | – | – | – | – | – | – | – |
| Fab 0088 (Fab, V domains shown) VH: EVQLVESGGGLVKPGGSLRLSCAASGFTFSNYAMSWVRQTPEKRLEWVATISRSGSYSYFPDSVQGRFTISRDNAKNSLYLQMNSLRAEDTAVYYCARLGGYDEGDAMDSWGQGTTVTVSS VL: DIVMTQTPLSLSVTPGQPASISCKSSQSLLESDGKTYLNWYLQKPGQSPQLLIYLVSILDSGVPDRFSGSGSGTDFTLKISRVEAEDVGVYYCLQATHFPQTFGGGTKVEIKR | – | 12.7 | 42.9 | 54.2 | 29 | 21.2 | 20.2 | 85.6 | 85.2 | 90.2 | 11.5 | 11.6 | 11.6 | – | – |
| Fab 0313 (Fab, V domains shown) VH: EVQLVESGGGLVKPGGSLRLSCAASGFTFSNYAMSWVRQAPGKGLEWVSTISRSGSYSYYADSVKGRFTISRDNAKNSLYLQMNSLRAEDTAVYYCARLGGYDEGDAMDSWGQGTTVTVSS VL: DIVMTQTPLSLSVTPGQPASISCKSSQSLLESDGKTYLNWYLQKPGQSPQLLIYLVSILDSGVPDRFSGSGSGTDFTLKISRVEAEDVGVYYCLQATHFPQTFGGGTKVEIKR | – | 0.4 | 0.8 | 1.4 | 106 | 76.2 | 48.1 | 10 | 19.8 | 29.6 | 21 | 10.2 | 8.9 | – | – |
| mAb 0310 (antibody, human IgG1, kappa, V domains shown) VH: EVQLVESGGGLVKPGGSLRLSCAASGFTFSNYAMSWVRQTPEKRLEWVATISRSGSYSYFPDSVQGRFTISRDNAKNSLYLQMNSLRAEDTAVYYCARLGGYDEGDAMDSWGQGTTVTVSS VL: DIVMTQTPLSLSVTPGQPASISCKSSQSLLESDGKTYLNWYLQKPGQSPQLLIYLVSILDSGVPDRFSGSGSGTDFTLKISRVEAEDVGVYYCLQATHFPQTFGGGTKVEIKR | – | – | – | – | – | – | – | – | – | – | – | – | – | – | Peak (nM); thrombin generation, FVIII-neutralized plasma + 10 nM TFPI alpha; 100.0 nM mAb [4]: 28.3 nM; ttPeak (min); thrombin generation, FVIII-neutralized plasma + 10 nM TFPI alpha; 100.0 nM mAb [4]: 24.5 min; Peak (nM); thrombin generation, FVIII-neutralized plasma, no TFPI added; 10.0 nM mAb [5]: 118 nM; ttPeak (min); thrombin generation, FVIII-neutralized plasma, no TFPI added; 10.0 nM mAb [5]: 8.5 min |
| mAb 2021 (antibody, IgG4, V domains shown) VH: EVQLVESGGGLVKPGGSLRLSCAASGFTFSNYAMSWVRQTPEKRLEWVATISRSGSYSYFPDSVQGRFTISRDNAKNSLYLQMNSLRAEDTAVYYCARLGGYDEGDAMDSWGQGTTVTVSS VL: DIVMTQTPLSLSVTPGQPASISCKSSQSLLESDGKTYLNWYLQKPGQSPQLLIYLVSILDSGVPDRFSGSGSGTDFTLKISRVEAEDVGVYYCLQATHFPQTFGGGTKVEIKR | 17.2 | – | – | – | – | – | – | – | – | – | – | – | – | 26.2 | – |
| Fab 0295 (Fab, V domains shown) VH: QVQLKQSGPGLVQPSQSLSITCTVSGFSLTNYGVHWVRQSPGKGLEWLAVIWRGGSIDYNAAFMSRLSITKDNSKSQVFFKMNSLQADDTAIYYCAKNSHGNYVGYAMDYWGQGTSVTVSS VL: GIVMTQSQKFMSTTVGDRVSITCKASQSVGPAVAWYQQKPGQSPKLLIYSASNRYTGVPDRFTGSGSGADFTLTISNLHSEDLADYFCQQYTSYPTFGGGTKLEIKR | – | 10.9 | 31.8 | 33.8 | 25.2 | 11.5 | 10.8 | 94 | 101 | 103 | 8.4 | 8.2 | 8.2 | – | – |
| mAb 2F3 (antibody, IgG1, V domains shown) VH: QVQLKQSGPGLVQPSQSLSITCTVSGFSLSSYGVHWVRQSPGKGLEWLGVIWRGGSTDFNAAFMSRVSFTKDNSKSQVFFKMNSLQADDTAIYYCAKNSHGNYVGYAMDYWGQGTSVTVSS VL: DIVMTQSQKFMSTTVGDKVSIPCKASENVGAAVAWYQQKPGQSPTLLIYSASNRYTGIPDRFTGSGSGTDFTLTIRTVQSEDLADYFCQQYTNYPTFGGGTKLEIKR | 20.9 | – | – | – | – | – | – | – | – | – | – | – | – | 14.6 | – |
| mAb 0336 (antibody, human IgG1, kappa, V domains shown) VH: QVQLKQSGPGLVQPSQSLSITCTVSGFSLTNYGVHWVRQSPGKGLEWLAVIWRGGSIDYNAAFMSRLSITKDNSKSQVFFKMNSLQADDTAIYYCAKNSHGNYVGYAMDYWGQGTSVTVSS VL: GIVMTQSQKFMSTTVGDRVSITCKASQSVGPAVAWYQQKPGQSPKLLIYSASNRYTGVPDRFTGSGSGADFTLTISNLHSEDLADYFCQQYTSYPTFGGGTKLEIKR | – | – | – | – | – | – | – | – | – | – | – | – | – | – | Peak (nM); thrombin generation, FVIII-neutralized plasma + 10 nM TFPI alpha; 100.0 nM mAb [4]: 44.9 nM; ttPeak (min); thrombin generation, FVIII-neutralized plasma + 10 nM TFPI alpha; 100.0 nM mAb [4]: 11.7 min; Peak (nM); thrombin generation, FVIII-neutralized plasma, no TFPI added; 10.0 nM mAb [5]: 140 nM; ttPeak (min); thrombin generation, FVIII-neutralized plasma, no TFPI added; 10.0 nM mAb [5]: 7.8 min |
| mAb 2F22 (antibody, IgG1, V domains shown) VH: QVQLKQSGPGLVQPSQSLSITCTVSGFSLTNYGVHWVRQSPGKGLEWLAVIWRGGSIDYNAAFMSRLSITKDNSKSQVFFKMNSLQADDTAIYYCAKNSHGNYVGYAMDYWGQGTSVTVSS VL: GIVMTQSQKFMSTTVGDRVSITCKASQSVGPAVAWYQQKPGQSPKLLIYSASNRYTGVPDRFTGSGSGADFTLTISNLHSEDLADYFCQQYTSYPTFGGGTKLEIKR | 23.7 | – | – | – | – | – | – | – | – | – | – | – | – | 13.6 | – |
